The assay deals with HBc-YFP fusion protein (Hepatitis B virus) (UniProt P03146). The experiment in a line: FRET or BRET. (In general: Bioluminescence resonance energy transfer reports proximity on the nanometre scale.)
Sequence of UniProt P03146 (P03146 whole entry, the tested form may be a part): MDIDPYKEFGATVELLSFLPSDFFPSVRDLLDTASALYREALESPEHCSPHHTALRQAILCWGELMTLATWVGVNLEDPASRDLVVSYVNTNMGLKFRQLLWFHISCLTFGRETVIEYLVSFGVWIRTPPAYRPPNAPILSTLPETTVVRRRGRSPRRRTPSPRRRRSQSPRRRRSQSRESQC

Regarding “A3G-CFP fusion protein (from UniProt Q9HC16 1-384) (natural protein)”, the FRET efficiency (E EFF, %) was 18.5% and the FRET ratio (FR) was determined as 1.68.

The values are drawn from paper PMC7173111.
